The target of assay [1] is T1, Human Id3: Histidine (human, UniProt Q02535 1-119 at identity 1.00)).
T1 construct: Fusion protein made in E. coli from vector pGW07; also called h-Id3: His; Human Id3 (coated wells); not shown: His tag
T1 chain: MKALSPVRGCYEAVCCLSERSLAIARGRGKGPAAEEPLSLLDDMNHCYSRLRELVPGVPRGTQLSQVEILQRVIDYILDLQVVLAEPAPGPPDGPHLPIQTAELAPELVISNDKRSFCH
Put plainly: ELISA, Ab 0.005 µg/ml. On the procedure: (§1) The rabbit monoclonal anti-human Id3 (clone #3-3) and the rabbit monoclonal anti-mouse/human Id3 (clones #6-1, 16-1, 17-3, and 42-1) produced in Example 6 were tested reactivity against the following antigens: mouse Id1:His, human Id1:His, mouse Id2:His, human Id2:His, mouse Id3:His, human Id3:His, mouse Id4:His, human Id4:His and GST.
(§2) 1. Microtiter wells (prepared in accordance with Example 6) were coated (0.1 μg/well) with mouse Id1:His, human Id1:His, human Id2:His, human Id3:His, and 1.0 μg/well with GST. [0155] 2. Antibody Diluent: 0.25% (w/v) BSA in 0.015M KPO₄ Buffer, 0.85% (w/v) NaCl, 0.1% (w/v) NaN₃, pH=7.40 [0156] 3. Rabbit monoclonal anti-human Id3 (clone #3-3) prepared in Example 7 was diluted to […] with the antibody diluent. […] 4. Rabbit monoclonal anti-mouse/human Id3 (clones #6-1, 16-1, 17-3, 42-1) prepared in Example 7 was diluted to 0.005, 0.010, 0.025, 0.05, 0.10, 0.25, and 0.50 μg/ml with the antibody diluent. […] 5. Conjugate Diluent: 50% (v/v) which consists of an aqueous solution containing Fetal Bovine Serum in 0.05 M Tris, 1% (v/v) Proclin-300, pH 7.6. [0159] 6. Conjugate: Goat anti-rabbit IgG (H+L)-HRP conjugate. [0160] 7. TMB reagent. […] 8. Stop solution (1 N HCI). Method
(§3) 1. Dispense 100 μL of antibody diluent, diluted rabbit monoclonal human Id3, and mouse/human Id3 hybridoma supernatants into appropriate wells. […] 2. Incubate at room temperature with mechanical shaking at 750 rpm for 90 minutes. [0165] 3. Remove the incubation mixture by flicking plate content into an appropriate waste container followed by rinsing the wells 5 times with distilled water. [0166] 4. Strike the wells sharply onto absorbent paper or paper towels to remove all residual water droplets. [0167] 5. Dispense 100 μL of 1:50,000 Goat Anti-Rabbit IgG-HRP Conjugate Reagent into each well. Gently mix for 5 seconds. [0168] 6. Incubate at room temperature with mechanical shaking at 750 rpm for 90 minutes. [0169] 7. Repeat procedures 3 and 4. [0170] 8. Dispense 100 μL of TMB Reagent into each well. Gently mix for 5 seconds. [0171] 9. Incubate at room temperature with mechanical shaking at 750 rpm for 20 minutes. […] 10.

Assay [2] concerns the target T2, Mouse Id3: Histidine (mouse, UniProt P41133 1-119).
T2 construct: Fusion protein made in E. coli from vector pGW07; also called m-Id3: His; Mouse Id3 (coated wells); not shown: His tag
T2 sequence: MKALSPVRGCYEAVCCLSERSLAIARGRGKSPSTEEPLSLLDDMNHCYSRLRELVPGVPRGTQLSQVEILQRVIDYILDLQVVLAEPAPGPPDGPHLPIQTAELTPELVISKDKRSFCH
Put plainly: ELISA, Ab 0.005 µg/ml. As to the method: as §1, §2, §3

The target in assay [3] is T3, Human Id1: Histidine (human, UniProt P41134 1-155, limits assumed).
T3 construct: Fusion protein made in E. coli from vector pGW07; also called h-Id1: his; not shown: His tag
T3 sequence (looked up): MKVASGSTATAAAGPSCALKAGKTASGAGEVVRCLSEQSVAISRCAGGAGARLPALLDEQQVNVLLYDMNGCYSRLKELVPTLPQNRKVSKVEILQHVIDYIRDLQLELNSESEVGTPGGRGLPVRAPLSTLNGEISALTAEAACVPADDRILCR
Put plainly: ELISA, Ab 0.005 µg/ml. As to the method: as §1, §2, §3

Assay [4] concerns the target T4, Human Id2: Histidine (human, UniProt Q02363 1-134, limits assumed).
T4 construct: Fusion protein made in E. coli from vector pGW07; also called h-Id2: His; not shown: His tag
T4 sequence (looked up): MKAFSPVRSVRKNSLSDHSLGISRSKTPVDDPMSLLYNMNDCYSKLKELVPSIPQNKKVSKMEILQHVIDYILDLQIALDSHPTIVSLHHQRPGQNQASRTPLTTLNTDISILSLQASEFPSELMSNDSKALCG
The assay is described as follows: ELISA, Ab 0.005 µg/ml. As to the method: as §1, §2, §3

In assay [5] the target is T5, glutathione S-transferase (GST) (UniProt P08515 1-218 = GST).
T5 construct: also called carrier protein GST
T5 sequence (P08515 whole entry): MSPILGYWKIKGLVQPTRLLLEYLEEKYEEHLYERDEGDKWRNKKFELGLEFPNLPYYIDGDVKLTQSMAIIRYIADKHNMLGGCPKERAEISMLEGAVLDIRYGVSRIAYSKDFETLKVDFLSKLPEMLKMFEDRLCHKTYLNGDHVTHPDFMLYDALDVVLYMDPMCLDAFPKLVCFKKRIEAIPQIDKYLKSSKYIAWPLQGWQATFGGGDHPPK
The assay is described as follows: ELISA, Ab 0.050 µg/ml.

The target in assay [6] is T1, Human Id3: Histidine. The assay is described as follows: ELISA, Ab 0.010 µg/ml.
The target of another assay is T6, Mouse Id1: Histidine (mouse, UniProt P20067-2 1-148, limits assumed).
T6 construct: Fusion protein made in E. coli from vector pGW07; also called m-Id1-His; not shown: His tag
T6 sequence (looked up): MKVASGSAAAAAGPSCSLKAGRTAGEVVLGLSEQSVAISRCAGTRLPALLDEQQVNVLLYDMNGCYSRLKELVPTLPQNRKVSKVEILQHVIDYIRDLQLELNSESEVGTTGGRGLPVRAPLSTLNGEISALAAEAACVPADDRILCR
The assay is described as follows: ELISA, Ab 0.010 µg/ml.

In assay [7] the target is T2, Mouse Id3: Histidine. Put plainly: ELISA, Ab 0.010 µg/ml.
The target in assay [8] is T3, Human Id1: Histidine. Put plainly: ELISA, Ab 0.010 µg/ml.
For the next assay, the target named is T7, Mouse Id2: Histidine (mouse, UniProt P41136 1-134, limits assumed).
T7 construct: Fusion protein made in E. coli from vector pGW07; also called m-Id2: His; not shown: His tag
T7 sequence (looked up): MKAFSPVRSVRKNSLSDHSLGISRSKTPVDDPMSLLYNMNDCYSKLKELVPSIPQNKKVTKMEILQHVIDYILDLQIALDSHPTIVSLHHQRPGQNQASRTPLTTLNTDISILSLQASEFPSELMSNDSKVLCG
Put plainly: ELISA, Ab 0.010 µg/ml.

The target of assay [9] is T4, Human Id2: Histidine. Put plainly: ELISA, Ab 0.010 µg/ml.

This passage reports A450 results from patent US20070178531A1 (BIOCHECK, published 2007).

B1: rabbit monoclonal anti-mouse/human Id3, clone #BCH-4/#16-1 (antibody, V domains shown)
VH: QSVEESGGRLVTPGTPLTLTCTASGFSLSSYYIHWVRQAPGKALEWIGYISDGGTTYYASWAKGRFTISKTSSTTVDLKMTSLTTEDTATYFCARQGFNIWGPGTLVTVSL
VL: AVLTQTPSPVSAAVGGTVTISCQSSQSVYNNNWLSWFQQKSGQPPKLLIYETSKLESGVPSRFKGSGSGTQFTLTIIDVQCDDAATYYCLGGYWTTSDNNIFGGGTEVVVK
notes: Rabbit IgG from a rabbit hybridoma; also called m/h Id3 MoAb 16-1
For the molecule B1, the A450 with Human Id3: Histidine [1] turned out to be 0.228 A450; with Mouse Id3: Histidine [2], 0.24 A450; with Human Id1: Histidine [3] it was 0.042 A450; with Human Id2: Histidine [4], 0.046 A450; in assay [5] it was 0.046 A450.

B2: rabbit monoclonal anti-mouse/human Id3, clone #BCH-4/#6-1 (antibody, V domains shown)
VH: QSVEESGGRLVTPGTPLTLTCTASGFSLSNVYIHWVRQAPGKGLEWIGYISDGDTARYATWAKGRFTISKTSSTTVNLKMTSLTTEDTATYFCARQGFNIWGPGTLVTVSL
VL: AVLTQTPSPVSAAVGGTVSISCQSSQSVWNNNWLSWFQQKPGQPPKLLIYETSKLESGVPSRFKGSGSGTQFTLTISDVQCDDAATYYCLGGYWTTSDNNVFGGGTEVVVK
notes: Rabbit IgG from a rabbit hybridoma; also called m/h Id3 MoAb 6-1
In the case of B2, the A450 in the assay with Human Id3: Histidine [1] is 0.275 A450; in the assay with Mouse Id3: Histidine [2] it was 0.312 A450; with Human Id1: Histidine [3], 0.044 A450; with Human Id2: Histidine [4], 0.045 A450; in the assay with Human Id3: Histidine [6], 0.48 A450; with Mouse Id1: Histidine, 0.079 A450. Besides, the A450 with Mouse Id3: Histidine [7] was 0.53 A450; with Human Id1: Histidine [8], 0.078 A450; in the assay with Mouse Id2: Histidine, 0.071 A450; with Human Id2: Histidine [9] it was 0.071 A450; in assay [5], 0.047 A450.

B3: rabbit monoclonal anti-mouse/human Id3, clone #BCH-4/#17-3 (antibody, V domains shown)
VH: QSVEESGGRLVTPGTPLTLTCTASGFSLSNVYIHWVRQAPGKGLEWIGYISDGDTARYATWAKGRFTISKTSSTTVNLKMTSLTTEDTATYFCARQGFNIWGPGTLVTVSL
VL: AVLTQTPSPVSAAVGGTVSISCQSSQSVWNNNWLSWFQQKPGQPPKLLIYETSKLESGVPSRFKGSGSGTQFTLTISDVQCDDAATYYCLGGYWTTSDNNVFGGGTEVVVK
notes: Rabbit IgG from a rabbit hybridoma; also called m/h Id3 MoAb 17-3; BCH-3/#17-3
B3: the A450 with Human Id3: Histidine [1] came out at 0.33 A450; in the assay with Mouse Id3: Histidine [2] it was 0.39 A450; with Human Id1: Histidine [3], 0.044 A450; with Human Id2: Histidine [4], 0.045 A450; in [5], 0.046 A450.

B4: rabbit monoclonal anti-mouse/human Id3, clone #BCH-4/#42-1 (antibody, V domains shown)
VH: QSVEESGGRLVTPGTPLTLTCTASGFSLSSYYIHWVRQAPGKALEWIGYISDGGTTYYASWAKGRFTISKTSSTTVDLKMTSLTTEDTATYFCARQGFNIWGPGTLVTVSL
VL: AVLTQTPSPVSAAVGGTVTISCQSSQSVYNNNWLSWFQQKSGQPPKLLIYETSKLESGVPSRFKGSGSGTQFTLTIIDVQCDDAATYYCLGGYWSTSDNNIFGGGTEVVVK
notes: Rabbit IgG from a rabbit hybridoma; also called m/h Id3 MoAb 42-1
Turning to B4, the A450 with Human Id3: Histidine [1] is 0.382 A450; in the assay with Mouse Id3: Histidine [2], 0.437 A450; with Human Id1: Histidine [3], 0.046 A450; with Human Id2: Histidine [4], 0.043 A450; in assay [5] it was 0.049 A450.

B5: rabbit monoclonal anti-human Id3, clone #BCH-4/#3-3 (antibody, V domains shown)
VH: QSVEESGGRLVTPGTPLTLTCTVSGIDLSSYAMSWVRQAPGKGLEWIGVIFPSNNVYYASWAKGRFTISKTSTTVDLKITSPTTEDTATYFCASMGAFDSWGPGTLVTVSS
VL: QVLTQTPSPVSAAVGGTVTINCQASQSIYNDNDLAWFQQKPGQPPKLLIYDASTLTSGVPSRFKGSGSGTQFTLTISDLDCDDAATYYCAARYSGNIYGFGGGTEVVVK
notes: Rabbit IgG from a rabbit hybridoma; also called h Id3 MoAb 3-3
Regarding B5, the A450 with Human Id1: Histidine [3] came to 0.047 A450; with Human Id2: Histidine [4], 0.044 A450; in [5], 0.048 A450.
